The series in a line: soluble on expression in E. coli; label from the status in PepcDB or PDB records.
Regarding “MMSACSDFLDREPLTTPNSETFLSNASAVNNYINGLYIALPSFGTYDMGVRGEEKNSDNIVAEVYDKRLNGELQENGGGTTEWQKGYQNLRNVNYFFEYYKVPETEETKDVLSMKGEAYFFRAYWHFYLLTRFGSIPVMDRFWDGNATVGGLQIPPRDRSAVAQFILDDLNTAKGLLHSRSQYKGLRVCKEAAIIMAMRVALYEGTWEKYHKGTDFAAAEDKSADLLGQVLTLGDELFGMGLALNTKATDKNAVNIEDAYAHIFNSKDLSDMTEVVFWKKYSIADGVIHNLSSNLGAGYVDNSGPAGLSQSLVDNYLNADGTPINPADGIFKDFNLTFKGRDGRLLATVMHSNCKFKSTSPESKSKAMLVEEYSEENKQIVRPPYLTEGGPARNATGYHIRMSIDTTYVSGQGETSLPVIRYAEALLAYAEAAEELGKCTPAVLEKTLKPLRERAGVTYKDPSEIDPNFTDFGYTISANLQEIRRERRAELALQGFRLDDLMRWRAHKLIQGKRGTGAYFGTDGVLYKAFDPKNAADLKTILTTDGWLDPQKELLPRGYQFDANRDYLLPVPPSEISLNHELKQNPGWQRK”, the “soluble on expression in E. coli” value was “not soluble”.
With “MSLTHAILFDLDGTLVDHASAARAALHAWSPTVGVDTDVERWIELDKWGFARFERGETTHLGQRRDRIRAYLNRELDDATCDDIYSGYLKAYEQNWTAYPDAKGVLDRAVATGAPVGILTNGAAPMQQDKLDRTGLGLPELVMLAASTLDSAKPRPEMYARALTHLGARTATIIGDDWTNDVAAPRELGWNALYLDRSGTDPRADIHSLDELFHEGHHHHHH” the entry was “soluble”.
Regarding “MFGCITMSENNQCVIVGIAGASASGKSLIASTIYNELRAKVGDHQIGVITEDCYYKDQSHLSMEERVKTNYDHPSALDHDLLCQHLQMLARGEAVEVPEYSYTEHTRTEQTTTMTPKKVIILEGILLLTDPRLRDLMHATVFMDTPLDICLLRRVKRDVQERGRTMESVLKQYQETVRPMFMQFIEPSKQYADIIVPRGGKNRIAIDVLKAHIAKLLKS”, the “soluble on expression in E. coli” value was “not soluble”.
With “MTKVQKRLFEVADKQYALFQAKLIPNIPQERVIGVRVPVLRKIAREFEKEPECRDFLNTLPHAYYDENMLHSILLSNVKNYEECIAAVEAFLPYVDNWAVCDTLRPKVFGKHKDKLLPRIKDWIASDKTYTCRFGIGMLMMHYLDKDFKPEYLELPQKVDSEEYYVKMMIAWFYATALANQWDATIPYIEEHRLSDWVHKKTIQKACESYRITDEQKAYLKTLR” the entry was “not soluble”; with “MTLETAFMLPVQDAQHSFRRLLKAMSEPGVIVALHQLKRGWQPLNIATTSVLLTLADNDTPVWLSTPLNNDIVNQSLRFHTNAPLVSQPEQATFAVTDEAISSEQLNALSTGTAVAPEAGATLILQVASLSGGRMLRLTGAGIAEERMIAPQLPECILHELTERPHPFPLGIDLILTCGERLLAIPRTTHVEVC”, “soluble”.
Regarding “MSLSENTTKVVQLNSHLTAPGQVTDELQSLTRMPAAFVETKDKGKQALRPLLQALFDNIDDALFELADRAEHNAEQNMFFESMREVRIKRRGMELCFGQELDNRFRLLLTDDAPRAKSSADDPRLAVDSLSLIANEELEELVAADTMIIKAEGEFTDSLSQLTTRIDTLVHPLEVTDKTNPFGPTSVCQSFVGVCKTLDMDIRAKLVLFKLFDRYVMNGLGDVYAACNEVLVNNGILPGLAKGRTTAARADSNIQQPPAASGTVDVFAQLQTLLHGLPQHTAGIETSGLVAVGQAPQIPRDTLMTLLQSVQLSLAPQLDQQLQAALQGVGPQQLDIQQSLSNLLSAKLPSKPMSIGQVESDALNLVAMLFQFILDDRNLAAPMKALIARLQIPFIKAAMIDSSFFTKGGHPARRLLNEIASASLGWVAIGIVDRDPLYAKVSSIVTRIQREFDGDSRLFQDVLTDFVAFLDMDKRRIGLVEQRTINAEDGKAKSEQARTAVQTALNERVAGLSLPKVVISLLEQAWSNVLFLIYLKEGDQAENWQEGLNVVDDLLWSVQPMDSADSRHRLVTMVPPLLKNVRAGLTKIGYNPFEMNQLFTDLEVVHLSQLQALNTVKLDMTASEGHHHHHH”, the “soluble on expression in E. coli” value is “not soluble”.
For “MLQLFSFLAIFYISLSNCDPQILRLKSIPSPIPNVEEGAKLYLASNDDNGLLKNIQVQTAGGSFTLDQINVNTANGNAKSIVIDGGLVISTSNSNADTSGLTGFLYLTTKKQADDPAFSVYVIKQAQTVSTTQPNSTVVILNTELDNDAFFDHIEPLQIGLDYWYFTASEPMSMTMESKYVSDLVYTTTSVNTTGLVVNDFLFQEHVVKFQLDLTRVRTIGTLVSAIPIASQINVIFNQGGGISAQR” the value was “not soluble”.
“MARKLFTSESVTEGHPDKICDQISDAVLDAIFSQDPMARVACETAVTTGLVLVTGEITTNCYVDIPKIVRSTIREIGYDRAKYGFDCDTCAVLTSIDEQSPDIAMGVNKALEAKTGEMSDEEIEAIGAGDQGMMFGFACDETPELMPMPISLAHKLAMRLSQVRKNGTLNYLRPDGKSQVTVEYDGDKPVRVDTVLISTQHGPEVDYDTIKRDVIEHVIKPVIPAELLDSKTKYLVNPTGRFVIGGPQGDSGLTGRKIIVDTYGGYARHGGGAFSGKDPTKVDRSAAYAARYVAKNIVAAGLARKCEVQLAYAIGVARPVSVRVDTFGTGIIPEEKIESLVNKYFDLRPAGIIKTLDLRRPIYKQTAAYGHFGRTDIDLPWERTDKPKS”: the “soluble on expression in E. coli” value was “not soluble”.
For “MSLSVNDRDTSALRYFDFKDDEFVKPSPTEFNSWINREIVTKHHPHHNGYDEIYTKNQPQVIEGDFLYGDVRVKLANEWVSIYEYSLDSSSPSWNKIGRAVTDTNGHIKYNIPNNMKLSYGMHLIKLYVEGDGTSANMYIQVLDNTKKYVVFDMDGTLTTTDFEDVKQYAGEFFNSNYVAKMYPDVDNVVKYYASKGYGILYLTARPYWLSEESQTWLWKNGFPMGLLHTYTGGDVLLGEEAESFKAGYLNQLKSQGIEFDYGFGNEKTDVEAYSNIGIAKSNIFTIGKNRGIDGSVSIVSYTDYLKQLSGNEGHHHHHH” the value was “soluble”.
For “MPEDLALESNPSDHPRASTIFLSKSQTDVREKRKSNHLNHCDLSNILPHKEQREKVPEEYFKHDPEHKFIYRFVRTLFSAAQLTAECAIVTLVYLERLLTYAEIDICPTNWKRIVLGAILLASKVWDDQAVWNVDYCQILKDITVEDMNEMERHFLELLQFNINVPASVYAKYYFDLRSLADDNNLNFLFAPLSKERAQNLEAISRLCEDKDLCRAAMRRSFSADNFIGIQRSKAILS” the value was “not soluble”; for “MVVFDLSWTLVQADSFELLCQAAAVDADAVAEVRRCHSLGSDDDLRACAALLRGRSSTGLAERLHALIEYTDGAASVCRVLKKLGYRTTVLSPGRSFLRELVKADLGIDFVAANRHEMDSNEHFTGAILELLVNGERKAELLTMLAMREQLSPQQIIAVGDGPVSAKMLDSAGPSIAFGAPAARDGTNIGGKIQSKSLTCIWFLMGIHERDLRSFS”, “soluble”.
In the case of “MGSDKIHHHHHHMKSKGSRLSTDCPVEFPKIVSGFAEEVKIRRQSSQGQYAVDSHPPKSPELKHRRQRSSSFVNGKCRNRDLPLLDNKKAQEINTNSHGQDIGIKNLPRQRELLNAKNGIDFTLMVAGQSGLGKTTFINSLFSTSLIDDDIKENKPIIRYKSIVEGDGTHLNFNVIDTPGFGNNMDNAFTWRTMVNYIDEEIRSYIFQEEQPDRTKMVDNRVHCCLYFLRPSNKGIDTLDVVTMKKLAKRVNLIPVIAKSDLLTKEELKNFKTQVREIIRVQDIPVCFFFGDEVLNATQDIFQKYPFSIIASNEYIFNEKGEKVKGRQYKWGAVDIENEKYCDFKILQKTIFDWNLIDLVESTEDYYEKCRSEMLRTRLLKARDCLTTKSVDITEEQRKFLEEEMNFDEIEENKLKNYKCYEIINKTVMDKVATEWDPEFITRQLEAKKKFNELSNREISKFRDWKKSLFMEQENFNQEIEQLNHKLENLQLECQDLEYKLLIGKSSNSHSTDSATLVNVHIKR”, the “soluble on expression in E. coli” value is “not soluble”.
Turning to “GMQDERWNHPLYTTTAINDEELEGHAYIPGGLKVQTSSPMNDHPGTNPEQLLGLSLSTCLEATLEAVEKEHGLPHTGAVRVKVAFIGARAEYQFLVHAQVMVKGVDFDTAKAFTNEIENRCPVSKLLKNSGNYTIETVTDFKD”, the “soluble on expression in E. coli” value is recorded as “soluble”.
